# Data as given in patent US12454527B2, “Conjugate monomethyl auristatin E to obtain a composition for treatment of prostate cancer” (priority 2019, dated 2025).
# Values joined by “and” are separate entries in the source; they are usually repeats but may differ in a detail not shown here. Equal entries are not always repeated. Starred links: 1 amine or outer side, 2 acyl side, 3 side chain; linkers in the order of their positions; H or OH if unused. Non-standard residues stand in square brackets, D forms with d. Residues, ends and D or L forms follow the SMILES beside them. ξ: configuration not given here. *: point of attachment. GluureaLys(ε-3-ClBenzyl) = O=C(O)CC[C@H](NC(=O)N[C@@H](CCCCN(Cc1cccc(Cl)c1)*)C(=O)O)C(=O)O; Dolaproine = CO[C@@H]([C@@H]1CCCN1)[C@@H](C)C(=O)O; Dil = CC[C@H](C)[C@H](NC)[C@@H](CC(=O)O)OC; X1 = O=C(CCCc1cn(CCCN[*:1])nn1)[*:2]; PABC = O=C(OCc1ccc(N[*:1])cc1)[*:2]; X2 = C[C@@H](N*)[C@@H](O)c1ccccc1; Cit = NC(=O)NCCC[C@H](N)C(=O)O; Suc = O=C(CCC(=O)[*:2])[*:1]; NMeV = CN[C@H](C(=O)O)C(C)C; ξV = CC(C)C(N)C(=O)O; Ahx = NCCCCCC(=O)O
# Experiments:
# [1] = tested on: 22Rv1 prostate cancer s.c. xenografts; experiment: Antineoplastic efficacy on 22Rv1 prostate cancer xenograft model (tumor growth inhibition); format: in vivo, mice; conditions: for Tumor volume, V mean / TGI %: 22Rv1; for Tumor volume, V mean / TGI % / Tumor volume (individual tumors): 0.3 mg/kg i.p. x3; for TGI %: vs TGC; for Tumor volume (individual tumors): 22Rv1 s.c. xenograft, 0.3 mg/kg
# Description: The evaluation of antineoplastic Conjugate (I) efficacy on xenograft model of prostate cancer.
# To study the drug efficacy the xenograft model was selected as a quite illustrative one for preclinical studies (Application of Prostate Cancer Models for Preclinical Study: Advantages and Limitations of Cell Lines, Patient-Derived Xenografts, and Three-Dimensional Culture of Patient-Derived Cells Takeshi Namekawa, Kazuhiro Kuniko Horie-Inoue, Satoshi Inoue Cells, 2019 January; 8(1), The criteria of antineoplastic activity were tumor growth inhibition (TGI) (Experimental assessment of antineoplastic agents in the USSR and USA/IEd. Ed. Sophyina Z. P., Syrkin A. B., Goldin F., Klein I.//J.: Medicine, 1980) in treated animals (Pon) compared with control (Pk), expressed as a percentage: […]
# The treatment in all groups was started when tumor nodes were appeared.
# Tumor growth was times at the end of study (Table 1).
# [2] = Assessment of the tolerability in the 22Rv1 xenograft study (body weight, survival, general health); format: in vivo, mice; conditions: 0.3 mg/kg; for Body weight of mice (M ± m): in g (unit assumed)
# Lymphoid Leukosis P388 = experiment: Antineoplastic activity on lymphoid leukosis P388 model (lifespan/survival); format: in vivo, male mice BDF1; conditions: 0.5 and 1 mg/kg
# Method: Lymphoid Leukosis P388 (male mice BDF1)—observation was held for 30 days since the first product administration (the product administration was started 24 hours after revaccination) and it was administered 3 times intraperitoneally in a day.
# • 1. Group 1—tumor growth control (TGC) • 2. Group 2—placebo (diluent) • 3. Group 3—intraperitoneal Conjugate (I) administration in a dose of 0.5 mg/kg 3 times; • 4. Group 4—intraperitoneal Conjugate (I) administration in a dose of 1.0 mg/kg 3 times:
# Experimental animals of control group (TGC) were administered with 0.9% saline, the placebo group was injected with the diluent (DMSO+Haemodes) of similar volume. The antineoplastic activity was determined according to mice lifespan.
# [3] = Chronic toxicity study, intravenous once every 3 weeks, rats; format: in vivo; conditions: for Necropsy / Signs of intoxication: male rats
# Description: Chronic toxicity study of Conjugate (1) product on Rats and rabbits.
# • 1. Conjugate (I). • 2. Solubilizer Pluronic F127—in the amount, five-fold greater than the conjugate amount by weight. • 3. Diluent—Haemodes infusion solution. • 4. Dimethyl sulfoxide—in the amount of 5% of the prepared volume.
# A 1 00 white ° inbred mature male rats about 2 months old with a body weight of 190-210 g and 60 sexually mature male rabbits of the Soviet Chinchilla breed about 2 months old with a body weight of […] were involved in the experiment.
# The study design determined the intravenous administration of the test drugs once every 3 weeks for 3 months (a total of 4 injections) for the experiment of chronic toxicity determination. The local irritant effect of the products within intravenous administration will be studied together with the chronic toxicity study.
# Each animal received the intravenous injection of the test drug or the reference drug in a volume not exceeding the acceptable volume for a single injection of 2 mL for rats and 20 mL for rabbits. The products were replaced with a Pluronic solution with DMSO in Haemodes in the control group of animals. The duration of observation for laboratory animals was 4 weeks (intermediate stage).
# Apparent signs of intoxication were evaluated daily. During the study, integral indicators of animal health were recorded (see Tables 15. 16, 17).
# [4] = Acute toxicity study, single intravenous administration, rats; format: in vivo; conditions: male rats
# Description: Acute toxicity study of Conjugate (I) product on mice and rats.
# • 1. Conjugate (I). • 2. Solubilizer Pluronic F127—in the amount, five-fold greater than the conjugate amount by weight. • 3. Diluent Haemodes infusion solution. • 4. Dimethyl sulfoxide—in the amount of 5% of the prepared volume.
# The experiment took white outbred male mice aged about 2 months with body weight of 19-21,g, and also white outbred mature male rats aged about 2 months with body weight 190-210 g.
# Acute toxicity study was performed within the intravenous administration. Before the start of the experiment to determine an acute toxicity, the animals were deprived of food and water (mice were deprived for 2 hours, rats—for 10-12 hours), and then weighed. Then each animal received the intravenous drug injection according to the study design, in a volume not exceeding the acceptable single injection volume: 0.5 mL for mice, 2 mL for rats, and fractionally if necessary. The control group of animals received Pluronic solution in Haemodes in the proportion used fort dose preparation of 78 mg/kg for mice and 38 mg/kg for rats. The duration of observation for laboratory animals was 14 days. During this period, visible signs of intoxication were assessed (see Table 9).
# [5] = group 2, 150 μg/kg intravenously 1 time in 3 weeks
# [6] = group 3, 188 μg/kg intravenously 1 time in 3 weeks
smiles,measurement,setting,value
CC[C@H](C)[C@@H]([C@@H](CC(=O)N1CCC[C@H]1[C@H](OC)[C@@H](C)C(=O)N[C@H](C)[C@@H](O)c1ccccc1)OC)N(C)C(=O)[C@@H](NC(=O)[C@H](C(C)C)N(C)C(=O)OCc1ccc(NC(=O)[C@H](CCCNC(N)=O)NC(=O)C(NC(=O)CCCc2cn(CCCNC(=O)[C@H](Cc3ccc(O)cc3)NC(=O)[C@H](Cc3ccccc3)NC(=O)CCC(=O)NCCCCCC(=O)N(CCCC[C@H](NC(=O)N[C@@H](CCC(=O)O)C(=O)O)C(=O)O)Cc3cccc(Cl)c3)nn2)C(C)C)cc1)C(C)C (some centres unmarked) [Conjugate (I)] ({GluureaLys(ε-3-ClBenzyl)-Ahx-Suc}-FY[X1][ξV][Cit][PABC][NMeV]V[Dil][Dolaproine]-X2),"Tumor volume, V mean",[1]; day 1,28 mm^3
same,TGI %,[1]; day 1 after treatment completion,83%
same,"Tumor volume, V mean",[1]; day 4,83 mm^3
same,TGI %,[1]; day 4,85%
same,"Tumor volume, V mean",[1]; day 8,341 mm^3
same,TGI %,[1]; day 8,70%
same,Tumor volume (individual tumors),[1]; day 1 after treatment,22 mm^3 and 17 mm^3 (2×) and 45 mm^3 and 14 mm^3 and 19 mm^3 and 30 mm^3 (2×) and 32 mm^3 and 31 mm^3 and 51 mm^3 and 34 mm^3 and 18 mm^3 and 40 mm^3
same,Tumor volume (individual tumors),[1]; day 4 after treatment,72 mm^3 (2×) and 42 mm^3 and 75 mm^3 and 38 mm^3 and 78 mm^3 and 173 mm^3 and 63 mm^3 and 108 mm^3 and 115 mm^3 and 65 mm^3 and 74 mm^3 and 102 mm^3 and 81 mm^3
same,Tumor volume (individual tumors),[1]; day 8 after treatment,346 mm^3 and 111 mm^3 and 369 mm^3 and 186 mm^3 and 463 mm^3 and 597 mm^3 and 570 mm^3 and 314 mm^3 and 853 mm^3 and 177 mm^3 and 247 mm^3 and 349 mm^3 and 94 mm^3 and 96 mm^3
same,Dose achieving effective tumor growth inhibition (TGI),"[1]; mouse, in vivo",approximately 0.3 mg/kg
same,Body weight of mice (M ± m),[2]; day 0 after treatment initiated,22.2 ± 0.53
same,Body weight of mice (M ± m),[2]; day 2,21.2 ± 0.36
same,Body weight of mice (M ± m),[2]; day 4,18.0 ± 0.48
same,Body weight of mice (M ± m),[2]; day 6,19.2 ± 0.35
same,Body weight of mice (M ± m),[2]; day 8,19.4 ± 0.4
same,Death cases,[2]; mice,no death cases
same,Survival,"[2]; mice, whole experiment",100%
same,General health and mice behavior,[2]; within and after intake,satisfactory without any pathologic changes and gastrointestinal and any other toxicity
same,Antineoplastic activity,Lymphoid Leukosis P388,presence of the antineoplastic activity
same,Necropsy,[3]; [5],None
same,Signs of intoxication,[3]; [5],No signs of intoxication
same,Necropsy,[3]; [6],None
same,Signs of intoxication,[3]; [6],No signs of intoxication
same,Necropsy,"[3]; group 4, 225 μg/kg intravenously 1 time in 3 weeks",None
same,Signs of intoxication,"[3]; group 4, 225 μg/kg, 2-3 days after the first administration, all animals, finishing on days 6-7",group developed diarrhea finishing on
same,Signs of intoxication,"[3]; group 4, 225 μg/kg, 2-3 days after the second administration",animals showed diarrhea.
same,Main observed toxic effect,"[3]; rats, chronic",decreased body weight gain
same,Rat excretory system: urine volume,"[3]; rats, chronic",reliable decreased urine volume
same,Chronic toxicity (overall),"[3]; rats, i.v. once every 3 weeks, intermediate stage 4 weeks",moderate toxicity
same,Body weight effect (summary),[4]; all test doses,decreased growth rate or decreased body weight regarding the initial One
same,Fatality,[4]; i.v. 4 mg/kg,0
same,Fatality,[4]; i.v. 4.5 mg/kg,3
same,Fatality,[4]; i.v. 5 mg/kg,5
same,Fatality,[4]; i.v. 5.1 mg/kg,4
same,Fatality,[4]; i.v. 5.4 mg/kg,10
